Assay results reported in patent US7825091B2, “Modification of feeding behaviour” (Imperial Innovations Limited, priority 2003, dated 2010).

Tests used:
[1] = ICV injection, food intake in 24-h fasted rats (studies 1a, 2a); assay type: in vivo, rat; conditions: ICV 3 nmol, vs saline
Excerpt: (§1) Animals were handled daily after recovery from surgery until completion of the studies.
(§2) Animals had permanent stainless steel guide cannulas (Plastics One, Roanoke, Va.) stereotactically implanted ICV (intracerebraventricularly) or iPVN (into the hypothalamic paraventricular nucleus).

[2] = iPVN injection, food intake in 24-h fasted rats (studies 1b, 2b); assay type: in vivo, rat; conditions: iPVN 1 nmol, any time point
Protocol: as §1, §2
Therefore, exendin-4 was injected iPVN at a dose of 0.03 nmol.

B1: glicentin (peptide, UniProt P01275 21-89, looked up)
Glicentin: RSLQDTEEKSRSFSASQADPLSDPDQMNEDKRHSQGTFTSDYSKYLDSRRAQDFVQWLMNTKRNRNNIA
modifications: Glicentin
notes: proglucagon-derived peptide purchased from Peninsula Laboratories
food intake (refeeding) after ICV injection [1]: failed to affect food intake at any time point | food intake after iPVN injection [2]: failed to affect food intake at any time point
